In IntAct's records for PubMed 20389280:

B1: Kelch-like protein 20 (Homo sapiens), Q9Y2M5 (parent)
chain: MEGKPMRRCTNIRPGETGMDVTSRCTLGDPNKLPEGVPQPARMPYISDKHPRQTLEVINLLRKHRELCDVVLVVGAKKIYAHRVILSACSPYFRAMFTGELAESRQTEVVIRDIDERAMELLIDFAYTSQITVEEGNVQTLLPAACLLQLAEIQEACCEFLKRQLDPSNCLGIRAFADTHSCRELLRIADKFTQHNFQEVMESEEFMLLPANQLIDIISSDELNVRSEEQVFNAVMAWVKYSIQERRPQLPQVLQHVRLPLLSPKFLVGTVGSDPLIKSDEECRDLVDEAKNYLLLPQERPLMQGPRTRPRKPIRCGEVLFAVGGWCSGDAISSVERYDPQTNEWRMVASMSKRRCGVGVSVLDDLLYAVGGHDGSSYLNSVERYDPKTNQWSSDVAPTSTCRTSVGVAVLGGFLYAVGGQDGVSCLNIVERYDPKENKWTRVASMSTRRLGVAVAVLGGFLYAVGGSDGTSPLNTVERYNPQENRWHTIAPMGTRRKHLGCAVYQDMIYAVGGRDDTTELSSAERYNPRTNQWSPVVAMTSRRSGVGLAVVNGQLMAVGGFDGTTYLKTIEVFDPDANTWRLYGGMNYRRLGGGVGVIKMTHCESHIW

Variants of: B1
Conditions: with cul3_human CUL3, Q13618

Effect of a mutation on the interaction, disrupting interaction:
V109A
I111A
C146A
L148A
L150A
